Laboratory results reported in paper PMC8042448 (The Journal of Biological Chemistry, 2021).

Assays:
Settings in all cases: both partners purified
[1] = molecular target: T1, amyloid β (1–42) oligomers (UniProt P05067 672-713); experiment: […] (40–80 μM) […] (160–300 μM) in 30 mM Tris-HCl pH 7.4; […]
T1 construct: also called Aβ(1–42)_(oligo); Aβ_(oligo)

[2] = molecular target: T1, amyloid β (1–42) oligomers; experiment: co-sedimentation
[3] = molecular target: T1, amyloid β (1–42) oligomers; experiment: […]) in 30 mM Tris-HCl pH 7.4; […]

Binder	binding result [1]	stoichiometry N [2]	stoichiometry N [3]
recombinant full-length human prion protein huPrP(23–230) (natural protein, also called full-length huPrP) not shown	binds		
C-terminally truncated human prion protein huPrP(23–144) (domain or fragment, also called N-terminal construct huPrP(23–144); huPrP(23–144)exc) KKRPKPGGWNTGGSRYPGQGSPGGNRYPPQGGGGWGQPHGGGWGQPHGGGWGQPHGGGWGQPHGGGWGQGGGTHSQWNKPSKPKTNMKHMAGAAAAGAVVGGLGGYMLGSAMSRPIIHFGSD		3.7	8.6
